Reference: patent US20250340854, “ENGINEERED Cas12f PROTEIN” (THE UNIVERSITY OF TOKYO, published 2025)
Numbering of substitutions follows the chain as printed. Names and notes keep the numbering of the source.

T1: Cas12f RARR (uncultured archaeon, UniProt A0A482D308 SEQ:1-529, I118R,Y122A,I126R,M178R)
T1 sequence: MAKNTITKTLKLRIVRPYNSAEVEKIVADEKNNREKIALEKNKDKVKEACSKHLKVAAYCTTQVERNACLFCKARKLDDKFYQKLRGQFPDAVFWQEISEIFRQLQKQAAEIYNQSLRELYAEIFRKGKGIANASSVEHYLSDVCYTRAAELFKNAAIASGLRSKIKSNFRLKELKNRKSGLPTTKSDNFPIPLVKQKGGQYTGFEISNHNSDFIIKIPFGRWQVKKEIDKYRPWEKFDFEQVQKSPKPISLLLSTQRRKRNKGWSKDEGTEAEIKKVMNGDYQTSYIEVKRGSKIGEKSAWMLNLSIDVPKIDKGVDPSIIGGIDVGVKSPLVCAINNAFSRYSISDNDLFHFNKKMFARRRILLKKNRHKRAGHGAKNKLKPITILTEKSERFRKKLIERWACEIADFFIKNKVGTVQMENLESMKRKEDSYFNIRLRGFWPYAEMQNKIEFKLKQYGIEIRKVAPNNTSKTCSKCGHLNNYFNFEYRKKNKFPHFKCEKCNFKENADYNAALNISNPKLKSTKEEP

T2: Cas12f (Cas12f1, Cas14a) (uncultured archaeon, UniProt A0A482D308 SEQ:1-529)
T2 sequence: T1 sequence with R118I, A122Y, R126I, R178M

B1: Cas12f I118R mutant (protein)
chain: T1 sequence with A122Y, R126I, R178M
B2: Cas12f Y122A mutant (protein)
chain: T1 sequence with R118I, R126I, R178M
B3: Cas12f I126R mutant (protein)
chain: T1 sequence with R118I, A122Y, R178M
B4: Cas12f I118R/Y122A/I126R/M178R (RARR) mutant (protein)
chain: T1 sequence
B5: Cas12f M178R mutant (protein)
chain: T1 sequence with R118I, A122Y, R126I
B6: WT sgRNA (ssRNA)
RNA: GGUUCACUGAUAAAGUGGAGAACCGCUUCACCAAAAGCUGUCCCUUAGGGGAUUAGAACUUGAGUGAAGGUGGGCUGCUUGCAUCAGCCUAAUGUCGAGAAGUGCUUUCUUCGGAAAGUAACCCUCGAAACAAAUUCAUUUGAAAGAAUGAAGGAAUGCAACGGAAAUUAGGUGCGCUUGGC

Tests used:
Cas12f RARR = target: T1, Cas12f RARR; assay: size exclusion co-elution; 5 mM MgCl2, 50 mM NaCl, pH 8.0; conditions: tags: N-terminal His6; chain copies: 2 (stated)
Experimental: (§1) The peak fraction was analyzed by SDS-PAGE and Urea PAGE. The WT Cas12f protein and the RARR mutant were each eluted together with sgRNA at the same position.

Cas12f (Cas12f1, Cas14a) = target: T2, Cas12f (Cas12f1, Cas14a); assay: as above; conditions: tags: N-terminal His6; chain copies: 2 (stated)
Experimental: as §1

Binder	in vitro DNA cleavage activity	binding result (Cas12f RARR)	binding result (Cas12f (Cas12f1, Cas14a))
B1	reduced the DNA cleavage activity		
B2	reduced the DNA cleavage activity		
B3	reduced the DNA cleavage activity		
B4	lacked the DNA cleavage activity		
B5	reduced the DNA cleavage activity		
B6		binds	binds
